Numbering of substitutions follows the chain as printed. Where two headings read alike, the source gives them in different places.
B1: WTox (A isomer): oxidized wild-type human Ngb (Cys46-Cys55 disulfide bridge), A heme conformer (protein, UniProt Q9NPG2 1-151, looked up)
Neuroglobin: MERPEPELIRQSWRAVSRSPLEHGTVLFARLFALEPDLLPLFQYNCRQFSSPEDCLSSPEFLDHIRKVMLVIDAAVTNVEDLSSLEEYLASLGRKHRAVGVKLSSFSTVGESLLYMLEKCLGPAFTPATRAAWSQLYGAVVQAMSRGWDGE
modifications: oxidized, heme A isomer
B2: WTox (B isomer): oxidized wild-type human Ngb (Cys46-Cys55 disulfide bridge), B heme conformer (protein, UniProt Q9NPG2 1-151, looked up)
Neuroglobin: B1 Neuroglobin
modifications: oxidized, heme B isomer
B3: human Ngb: human neuroglobin, hexacoordinated hemoprotein of brain and retina (protein, UniProt Q9NPG2 1-151, looked up)
Neuroglobin: B1 Neuroglobin
B4: WTred: wild-type human Ngb with reduced cysteines, both heme isomers (protein, UniProt Q9NPG2 1-151, looked up)
Neuroglobin: B1 Neuroglobin
modifications: reduced cysteines
notes: wild-type human Ngb with reduced cysteines, both heme isomers
B5: C120Sred (A isomer) (protein, UniProt Q9NPG2 1-151, looked up, variant C120S)
Neuroglobin: B1 Neuroglobin with C120S
modifications: reduced, heme A isomer
B6: C120Sred (B isomer) (protein, UniProt Q9NPG2 1-151, looked up, variant C120S)
Neuroglobin: B1 Neuroglobin with C120S
modifications: reduced, heme B isomer
B7: WTred (A isomer): DTT-reduced wild-type human Ngb, A heme conformer (protein, UniProt Q9NPG2 1-151, looked up)
Neuroglobin: B1 Neuroglobin
modifications: DTT-reduced, heme A conformer
B8: C120Sox (B isomer) (protein, UniProt Q9NPG2 1-151, looked up, variant C120S)
Neuroglobin: B1 Neuroglobin with C120S
modifications: oxidized, heme B isomer
B9: C120Sox (A isomer) (protein, UniProt Q9NPG2 1-151, looked up, variant C120S)
Neuroglobin: B1 Neuroglobin with C120S
modifications: oxidized, heme A isomer
B10: WTred (B isomer): DTT-reduced wild-type human Ngb, B heme conformer (protein, UniProt Q9NPG2 1-151, looked up)
Neuroglobin: B1 Neuroglobin
modifications: DTT-reduced, heme B conformer

Assays:
[1] = for fraction of isomer remaining unbound (free) at equilibrium: end of reaction; for k off, off-rate of cyanide: estimated from K d and k obs; for Kd: read-out: K d, dissociation constant of cyanide, calculated from concentrations of free and bound species at equilibrium
[2] = parameters: method as in PMID 15020597; conditions: UV-visible study; cited from earlier work
[3] = Air reoxidation of the disulfide bridge followed by 1H NMR, cyanide omitted; type: physicochemical, human; conditions: no reducing agent, increase of WTox peak intensity
[4] = 500 μM KCN, 100 μM protein, 20 mM Tris-HCl pH 7.4, 298 K
[5] = calculated from T and 500 μM cyanide, 1/T = k obs[CN−]

Molecule	T, time constant of cyanide binding (exponential fit of heme methyl peak intensities) [1, 4] [min]	k obs, second-order association rate constant for cyanide binding [1, 5] [M⁻¹ s⁻¹]	k obs, second-order association rate constant for cyanide binding [1] [M⁻¹ s⁻¹]	T, time constant of cyanide binding (exponential fit of heme methyl peak intensities) ([1]; pH 7.4) [min]	other results
B1	19	1.75	–	–	time after KCN injection at which CN− binding reaction was completed ([1]; judged from constant peak intensities, 500 μM KCN): 60 min
B2	97	0.34	–	–	time after which CN− binding reaction was hardly finished ([1]; 500 μM KCN): ~5 h
B3	–	–	–	–	k on,CN, rate of cyanide binding to the pentacoordinate state ([1]; estimated here): 6700 M⁻¹ s⁻¹; fast cyanide binding rate (biphasic) [2]: 1.65 M⁻¹ s⁻¹; slow cyanide binding rate (biphasic) [2]: 0.37 M⁻¹ s⁻¹
B4	–	–	–	–	rate (time) of air reoxidation of the disulfide bridge [3]: about 60 h
B5	–	–	0.24	138	–
B6	–	–	0.13	255	–
B7	127	0.26	–	–	fraction of isomer remaining unbound (free) at equilibrium ([1]; 500 μM KCN, 100 μM protein): about 42%; k off, off-rate of cyanide [1]: 3.9e-05 s⁻¹; Kd [1]: 153 µM
B8	–	–	0.28	119	–
B9	–	–	1.85	18	–
B10	265	0.12	–	–	fraction of isomer remaining unbound (free) at equilibrium ([1]; 500 μM KCN, 100 μM protein): ~24%; k off, off-rate of cyanide [1]: 3.9e-05 s⁻¹; Kd [1]: 316 µM
